Assay results reported in patent US20240238439A1, “HER3-BINDING ANTIBODY-DRUG CONJUGATE” (priority 2023, published 2024).

Key:
[1] = molecular target: HER3 on the surface of human cancer cell lines (HCT116, DU145, H358, T-47D, OVCAR8) (UniProt P21860); assay: flow cytometry; DU145 cells
[2] = molecular target: HER3 on the surface of human cancer cell lines (HCT116, DU145, H358, T-47D, OVCAR8) (UniProt P21860); assay: flow cytometry; H358 cells
[3] = molecular target: HER3 on the surface of human cancer cell lines (HCT116, DU145, H358, T-47D, OVCAR8) (UniProt P21860); assay: flow cytometry; OVCAR8 cells
[4] = molecular target: HER3 on the surface of human cancer cell lines (HCT116, DU145, H358, T-47D, OVCAR8) (UniProt P21860); assay: flow cytometry; HCT116 cells
FCɣR IIA (CD32a) (human) = FCɣR IIA (CD32a) (human) (UniProt P12318); assay: SPR
FCɣR IA (CD64) (human) = FCɣR IA (CD64) (human) (UniProt P12314); assay: SPR
FCɣR IA (CD64) (human), sequence (P12314 16-288): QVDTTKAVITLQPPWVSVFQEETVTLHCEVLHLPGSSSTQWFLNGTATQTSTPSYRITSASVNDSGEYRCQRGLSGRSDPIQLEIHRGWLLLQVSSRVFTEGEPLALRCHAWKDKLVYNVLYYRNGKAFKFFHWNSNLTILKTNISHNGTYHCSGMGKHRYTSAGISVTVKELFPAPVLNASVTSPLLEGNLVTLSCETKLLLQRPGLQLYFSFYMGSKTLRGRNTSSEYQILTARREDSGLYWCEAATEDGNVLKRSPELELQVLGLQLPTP

FCɣR IIA (CD32a) (human), sequence (P12318 34-217): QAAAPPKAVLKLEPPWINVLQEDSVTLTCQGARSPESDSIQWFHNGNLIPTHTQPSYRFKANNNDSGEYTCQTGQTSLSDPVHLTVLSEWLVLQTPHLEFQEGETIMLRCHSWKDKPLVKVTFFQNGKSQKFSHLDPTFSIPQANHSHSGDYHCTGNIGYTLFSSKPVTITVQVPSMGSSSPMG

Patritumab-DXd
EC50 [1]: 2.4 nM | EC50 [2]: 8.23 nM | EC50 [3]: 1.01 nM | EC50 [4]: 0.756 nM

Human IgG1 (+ve control)
Kd (FCɣR IIA (CD32a) (human)): 56.9 nM | Kd (FCɣR IA (CD64) (human)): 6.5 nM
